Sequences and labels used below:
B1: H1H6807P (antibody, V domains shown)
VH: QVQLVESGGGVVQPGRSLRLSCAASGFTFSDYNMHWVRQAPGKGLEWVAVIWYDGSNKHYADSVKGRFTISRDNSKNTLYLQMNSLRAEDTAVYYCARDGFTIFGMVLDYWGQGTLVTVSS
VL: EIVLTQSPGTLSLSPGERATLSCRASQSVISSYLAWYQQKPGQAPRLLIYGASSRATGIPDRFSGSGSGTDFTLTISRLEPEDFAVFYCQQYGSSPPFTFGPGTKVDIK
notes: human IgG1 Fc (H1H)
B2: H1H6790P (antibody, human IgG1, V domains shown)
VH: EVQLVESGGGLVQPGGSLRLSCAASGFTFSSYAMTWVRQAPGKGLEWVSAITGSVGNTYYADSVKGRFTISRDNSKNTLYLQMNSLGAEDTAEYYCAKGAGMTTNWYLDLWGRGTLVTVSS
VL: DIVMTQSPDSLAVSLGARATINCKSSQSVLYSSNNQNYLTWYQQKPGQPPKLLIKWASTRESGVPDRFSGSGSGTDFTLTISSLQAEDVAVYYCQQYASSPYTFGQGTKLEIK
notes: human IgG1 Fc (H1H)
B3: H1H6795P (antibody, human IgG1, V domains shown)
VH: QVQLVQSGAEVKKPGASVKVSCKASGYTFGTSGITWVRQAPGQGLEWMGWSSAYNGKTDYAQKFQDRVTMTTDTSTTTGYMEMRSLTSDDTAVYYCTTVVRRPFDFWGQGTLVTVSS
VL: DIQMTQSPSSLSASVGDRVTITCRASQDINNFLAWFQQKPGKAPKSLIYAASSLQSGVPSKFSGGGSGTDFALTISSLQPEDFATYYCQQYSSYPITFGQGTRLEIK
notes: human IgG1 Fc (H1H)
B4: H1H6953N (antibody, human IgG1, V domains shown)
VH: EVQLLESGGGLVQPGGTLRLSCAASGFTFSAYAMSWVRQAPGKGLEWVSSINVRAGDTYYADSVKGRFTISRDNSKNTLFLLMNSLRAEDTAAYYCAKARYSSNWGFDFWGQGTLVTVSS
VL: DIVMTQSPDSLTVSLGARTTINCQSSQTILHSSNNHNYLAWYQQKPGLPPKLLIYWSSTRESGVPDRFSGSGSGTDFTLTISSLQAEDVAIYYCQQYSNTPYTFGQGTKLEIN
notes: also called H1M6953N

Positions count from the first letter of the chain named. Names may count otherwise.

The target in one assay is T1, hPRLR.mmh (soluble monomeric human PRLR) (human).
T1 construct: soluble monomeric PRLR protein
T1 chain: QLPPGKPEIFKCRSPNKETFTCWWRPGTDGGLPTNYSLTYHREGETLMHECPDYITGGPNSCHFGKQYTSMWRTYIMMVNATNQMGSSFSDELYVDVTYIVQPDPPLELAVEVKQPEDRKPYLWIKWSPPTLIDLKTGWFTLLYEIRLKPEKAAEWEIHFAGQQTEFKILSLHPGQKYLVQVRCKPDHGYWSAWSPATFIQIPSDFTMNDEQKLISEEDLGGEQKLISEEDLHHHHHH
As to the kind of experiment: SPR (Biacore), antibody capture, 37 C. The procedure:
(§1) Measurements were conducted on a T200 Biacore instrument. Kinetic association (kₐ) and dissociation (kd) rate constants were determined by processing and fitting the data to a 1:1 binding model using Scrubber 2.0 curve fitting software.
For orientation: SPR reads the build-up and loss of mass on a sensor chip optically.
Consider B1, for which the Kd stood at 0.31 nM, the “T 1/2” value worked out at 34 min, the koff was 0.000336 s⁻¹ and the kon was found to be 1.08e+06 M⁻¹ s⁻¹.
Turning to B2, the Kd is 3.5 nM, the “T 1/2” value is 4 min, the koff is 0.00329 s⁻¹ and the kon stood at 940000 M⁻¹ s⁻¹.
The corresponding values for B3 are 3.81 nM, 2 min, 0.0052 s⁻¹ and 1.36e+06 M⁻¹ s⁻¹.
The corresponding values for B4 are 1.11 nM, 9.4 min, 0.00122 s⁻¹ and 1.1e+06 M⁻¹ s⁻¹.

A further assay has as its target T2, hPRLR.mFc (soluble dimeric human PRLR) (human).
T2 construct: dimeric PRLR construct
T2 chain: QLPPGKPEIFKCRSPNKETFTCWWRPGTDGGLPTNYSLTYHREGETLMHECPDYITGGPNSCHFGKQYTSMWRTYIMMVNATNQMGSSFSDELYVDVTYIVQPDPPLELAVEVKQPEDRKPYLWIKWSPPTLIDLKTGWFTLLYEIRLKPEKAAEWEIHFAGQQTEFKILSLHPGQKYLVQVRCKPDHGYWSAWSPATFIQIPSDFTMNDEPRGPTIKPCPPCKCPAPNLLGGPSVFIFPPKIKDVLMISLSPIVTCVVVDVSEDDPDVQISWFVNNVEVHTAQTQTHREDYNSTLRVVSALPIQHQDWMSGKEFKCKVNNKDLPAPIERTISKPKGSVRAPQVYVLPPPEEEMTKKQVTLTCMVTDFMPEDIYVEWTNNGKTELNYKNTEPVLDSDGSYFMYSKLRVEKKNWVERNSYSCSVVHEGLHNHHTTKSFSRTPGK
As to the kind of experiment: SPR (Biacore), antibody capture, 37 C. Here is the method:
as §1
Take B1: the dissociation constant (Kd) is 0.09 nM, the “T 1/2” value stood at 105 min, the koff was found to be 0.00011 s⁻¹ and the on-rate (kon) came to 1.22e+06 M⁻¹ s⁻¹.
In the case of B2, binding was characterised by a dissociation constant (Kd) of 0.306 nM, the “T 1/2” value was 58 min, the koff came out at 0.000198 s⁻¹ and the kon is 646000 M⁻¹ s⁻¹.
The corresponding values for B3 are 0.0402 nM, 149 min, 7.77e-05 s⁻¹ and 1.94e+06 M⁻¹ s⁻¹.
With B4, binding was put at a Kd of 0.116 nM, the “T 1/2” value turned out to be 68 min, the koff was 0.00017 s⁻¹ and the kon came out at 1.47e+06 M⁻¹ s⁻¹.

The target in a further assay is T3, mfPRLR.mmh (soluble monomeric macaca fascicularis PRLR) (macaca fascicularis).
T3 construct: soluble monomeric PRLR protein; also called macaca fascicularis (mf) PRLR.mmh; monkey PRLR
T3 chain: T1 chain with I76V, A110T, I125M, I158T, T207I
Nature of the assay: SPR (Biacore), antibody capture, 37 C. Here is the method: as §1
For the molecule B1, binding was characterised by a dissociation constant (Kd) of 0.448 nM, the “T 1/2” value is 32 min, the koff worked out at 0.000359 s⁻¹ and the association rate constant (kon) was 802000 M⁻¹ s⁻¹.
The corresponding values for B2 are 5.22 nM, 4 min, 0.00321 s⁻¹ and 615000 M⁻¹ s⁻¹.
B3: the dissociation constant Kd was 6.16 nM, the “T 1/2” value stood at 2 min, the off-rate (koff) was determined as 0.00599 s⁻¹ and the association rate constant (kon) was 973000 M⁻¹ s⁻¹.
The like results for B4 were, in that order, 2.71 nM, 4.5 min, 0.00256 s⁻¹ and 947000 M⁻¹ s⁻¹.

The next assay has as its target T4, human PRLR on cells (endogenous on T47D, T47D#11, MCF7); introduced in HEK293/hPRLR/STAT5-Luc, 293/hPRLR, … (human, UniProt P16471 25-622).
T4 sequence: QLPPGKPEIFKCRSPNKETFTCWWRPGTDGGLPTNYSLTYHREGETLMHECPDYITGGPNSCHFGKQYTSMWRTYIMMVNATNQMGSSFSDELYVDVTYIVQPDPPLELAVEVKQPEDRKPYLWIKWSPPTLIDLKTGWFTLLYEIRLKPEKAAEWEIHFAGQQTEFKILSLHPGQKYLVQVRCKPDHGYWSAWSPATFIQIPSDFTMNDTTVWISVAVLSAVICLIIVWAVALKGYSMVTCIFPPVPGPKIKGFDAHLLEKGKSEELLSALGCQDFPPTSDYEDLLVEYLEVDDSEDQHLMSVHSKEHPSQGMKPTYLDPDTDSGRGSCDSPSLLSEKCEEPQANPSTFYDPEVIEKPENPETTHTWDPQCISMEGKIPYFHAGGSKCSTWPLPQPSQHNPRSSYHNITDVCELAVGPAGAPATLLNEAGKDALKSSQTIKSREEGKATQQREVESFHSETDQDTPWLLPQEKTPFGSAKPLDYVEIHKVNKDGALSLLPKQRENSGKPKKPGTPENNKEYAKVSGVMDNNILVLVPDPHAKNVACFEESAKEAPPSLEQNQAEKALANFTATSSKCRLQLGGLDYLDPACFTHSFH
As to the kind of experiment: cell-based or functional assay.
Take B1: the “IC50 of Blocking 5 nM PRL [M] (STAT5-Luc reporter, HEK293/hPRLR/STAT5-Luc cells)” value is 6e-10 M and the “Percent Blocking at 100 nM Antibody (STAT5-Luc reporter)” value (“Percent Blocking at 100 nM Antibody” below) was found to be 100%.
The corresponding values for B2 are 2.06e-10 M and 100%.
Regarding B3, the “Percent Blocking at 100 nM Antibody” value is 0%.
For the molecule B4, the “IC50 of Blocking 5 nM PRL [M] (STAT5-Luc reporter, HEK293/hPRLR/STAT5-Luc cells)” value stood at 1.05e-10 M and the “Percent Blocking at 100 nM Antibody” value is 100%.

The target of another assay is T5, monkey macaca fascicularis PRLR construct with an HA tag on HEK293/mfPRLR cells (macaca fascicularis, UniProt A0A2K5WXK1 25-619).
T5 construct: stably transfected into HEK293
T5 sequence: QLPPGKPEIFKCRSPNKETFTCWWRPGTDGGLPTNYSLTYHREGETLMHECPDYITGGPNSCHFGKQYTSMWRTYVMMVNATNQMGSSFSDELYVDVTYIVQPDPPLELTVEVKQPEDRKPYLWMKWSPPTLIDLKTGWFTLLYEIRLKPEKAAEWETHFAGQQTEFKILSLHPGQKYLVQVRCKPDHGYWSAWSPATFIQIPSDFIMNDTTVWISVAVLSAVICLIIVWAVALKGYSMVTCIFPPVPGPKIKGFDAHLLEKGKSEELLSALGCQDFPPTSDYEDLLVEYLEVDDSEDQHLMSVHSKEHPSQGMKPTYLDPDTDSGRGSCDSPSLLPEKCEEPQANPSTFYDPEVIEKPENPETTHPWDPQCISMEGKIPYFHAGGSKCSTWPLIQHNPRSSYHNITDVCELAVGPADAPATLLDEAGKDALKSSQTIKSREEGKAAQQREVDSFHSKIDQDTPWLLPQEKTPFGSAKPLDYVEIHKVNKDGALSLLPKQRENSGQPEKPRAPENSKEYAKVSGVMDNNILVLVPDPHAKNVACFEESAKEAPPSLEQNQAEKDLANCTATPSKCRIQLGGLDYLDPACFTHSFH
As to the kind of experiment: FACS on HEK293/mfPRLR cells.
As for B1, the “FACS Cell Binding (Fold Above Background)” value was determined as 27 fold.
In the case of B2, the “FACS Cell Binding (Fold Above Background)” value amounted to 24 fold.
On the same count and under the same terms, under B3 stands 22 fold; under B4, 29 fold.

For orientation: Kd means a measure of binding affinity in units of concentration. The term koff denotes the first-order rate constant of dissociation. One may read the kon as the second-order rate constant of association.

These data come from patent US20180185504A1 (Regeneron, published 2018).
